# Data taken from paper PMC6739470, “Modular Protein Ligation: A New Paradigm as a Reagent Platform for Pre-Clinical Drug Discovery” (Scientific Reports, 2019).
# B1: sCD73flagACK-biotin (soluble CD73 truncated after S552, C-terminal flag-Ala, ligated to C[K-PEG2-Biotin]) (enzyme, human, UniProt P21589 27-552, looked up)
# chain: WELTILHTNDVHSRLEQTSEDSSKCVNASRCMGGVARLFTKVQQIRRAEPNVLLLDAGDQYQGTIWFTVYKGAEVAHFMNALRYDAMALGNHEFDNGVEGLIEPLLKEAKFPILSANIKAKGPLASQISGLYLPYKVLPVGDEVVGIVGYTSKETPFLSNPGTNLVFEDEITALQPEVDKLKTLNVNKIIALGHSGFEMDKLIAQKVRGVDVVVGGHSNTFLYTGNPPSKEVPAGKYPFIVTSDDGRKVPVVQAYAFGKYLGYLKIEFDERGNVISSHGNPILLNSSIPEDPSIKADINKWRIKLDNYSTQELGKTIVYLDGSSQSCRFRECNMGNLICDAMINNNLRHTDEMFWNHVSMCILNGGGIRSPIDERNNGTITWENLAAVLPFGGTFDLVQLKGSTLKKAFEHSVHRYGQSTGEFLQVGGIHVVYDLSRKPGDRVVKLDVLCTKCRVPSYDPLKMDEVYKVILPNFLANGGDGFQMIKDELLRHDSGDQDINVVSTYISKMKVIYPAVEGRIKFSTGS
# modifications: C-terminal Ala-Cys-Lys after the flag tag (Ala from the construct, Cys-Lys dipeptide added by expressed protein ligation); PEG2-biotin on the epsilon-amino group of the lysine
# notes: soluble CD73 (5'-nucleotidase), truncated after residue S552; Uniprot P21589; Chain order: CD73(to S552)-flag-Ala-Cys-Lys(PEG2-biotin); Secreted protein; also called CD73 labeled with CK-biotin; sCD73flagACK-label; source: HEK293 cells transduced with BacMam, secreted as GyrA-CBD fusion; captured on chitin resin, ligated in 36 mM MESNA, sized on Superdex 200; not shown: FLAG, C-terminal, kept
# B2: sCD73-flag-CK-fluorescein (soluble CD73 truncated after S552, C-terminal flag-Ala, ligated to C[K-fluorescein]) (enzyme, human, UniProt P21589 27-552, looked up)
# chain: B1 chain
# modifications: C-terminal Ala-Cys-Lys after the flag tag (Ala from the construct, Cys-Lys dipeptide added by expressed protein ligation); fluorescein on the epsilon-amino group of the lysine
# notes: soluble CD73 (5'-nucleotidase), truncated after residue S552; Uniprot P21589; Chain order: CD73(to S552)-flag-Ala-Cys-Lys(fluorescein); Secreted protein; also called CD73 EPL fluorescein labeled; CD73 labeled with CK-fluorescein; source: HEK293 cells transduced with BacMam, secreted as GyrA-CBD fusion; captured on chitin resin, ligated in 36 mM MESNA, sized on Superdex 200; not shown: FLAG, …
# Target: the molecule itself
# Test: SEC; Superdex 200 column, final labeled products, compared with MW standards; no aggregate peak observed
protein,measurement,value
B1,stoichiometry N,2
B2,stoichiometry N,2
